Measurements as given in the MegaScale stability set (Tsuboyama et al. 2023).

B1: EEHEE_rd4_0003 (parent)
chain: KKVTINGVEIKFNNPEEAVKFALELAKRLNLRIEFHGDQIKIE

Variants of: B1
Test: folding stability dG (cDNA display proteolysis); higher = more stable
Conditions: PBS, room temperature

Folding stability dG [kcal/mol], by site and new letter:
V19: W 2.98 | N 1.83 | C 3.56 | G 1.54
L29: M 2.38 | C 3.71 | V 1.77 | Y 2.67 | W 2.43 | R 1.43
E17: N 2.24 | Q 2.48 | C 4.22 | P 1.9 | Y 2.56 | F 2.36 | G 2.2
I33: Q 1.08 | A 1.69 | R 0.847 | M 1.92 | D 0.681 | G 0.975 | H 0.908 | Y 1.74 | N 0.797 | T 1.31 | S 0.908
E9: H 2.46 | Y 2.58 | N 2.19 | A 2.4 | D 2.3 | L 2.78 | C 3.54
F12: I 1.9 | E 0.907 | Y 1.89 | D 0.955 | N 1.33 | H 1.45 | M 1.96
E34: D 2.12 | W 2.62 | S 2.77 | Q 2.44 | I 2.93 | K 2.42
Q39: V 3.18 | I 3.05 | E 2.92 | L 2.95 | C 3.11 | W 3.07 | G 2.52
I10: M 2.36 | N 1.5 | H 2.49 | L 2.6 | R 1.88 | K 1.83 | P 1.19 | T 1.78 | G 1.21
A26: Y 2.29 | M 2.37 | I 2.3 | S 2.23 | C 2.98 | N 1.43 | F 2.56 | D 0.982 | E 1.33
G7: N 2.11 | T 1.98 | Y 2.23 | M 2.2 | L 2.42 | V 2.45 | P 2.01 | E 1.78 | C 3.05 | A 1.95 | H 1.89 | W 2.54 | F 2.37
K41: T 2.69 | D 1.91 | L 2.86 | C 3.17 | S 2.46 | R 2.8 | W 2.85 | E 2.1
F21: Y 2.49 | A 1.85 | W 2.81 | V 1.74 | H 1.52 | N 1.27
K20: P 1.69 | N 2.13 | I 2.38 | M 2.44
P15: V 2.67 | Q 2.48 | L 2.9 | C 3.65 | F 3.12 | T 2.74
L25: T 1.7 | A 1.9 | F 2.44 | P -0.052 | C 2.82 | D 0.443 | V 2.24 | I 2.53 | K 0.98
V3: K 1.57 | L 2.39 | N 1.7 | W 2.29 | A 1.67 | P 2.06 | G 1.85 | D 1.7 | T 1.76 | I 2.48
G37: Y 2.41 | Q 2.44 | F 2.48 | K 2.47 | E 2.52 | W 2.44 | L 2.45 | C 2.68
E24: D 2.46 | I 2.49 | Y 2.73 | N 2.35 | W 3.15 | Q 2.57 | V 2.35
N6: A 2.41 | Y 2.75 | M 2.65 | K 2.17 | R 2.25 | L 2.87 | S 2.11 | I 2.41 | E 1.91
K1: F 3.5 | Q 2.5 | A 2.84 | M 3.33 | W 3.51 | N 2.67 | P 2.75 | S 2.83 | E 2.09 | L 3.15 | R 2.79 | Y 3.44 | G 2.6
A18: F 2.79 | C 3.5 | Q 1.61 | Y 2.36 | D 1.41 | T 1.88 | S 1.93 | M 2.47 | G 2.01
K27: C 3.23 | R 2.79 | S 2.52 | Y 2.44 | N 2.32 | L 2.62
H36: D 2.76 | S 2.66 | L 2.88 | V 2.89 | G 2.28 | Q 2.56 | W 2.73 | R 2.52
N30: I 2.34 | G 2.65 | L 2.51 | F 2.55 | P 1.82
E16: Q 2.6 | H 2.47 | S 2.54 | G 2.48 | C 3.56 | K 2.48
D38: T 2.29 | C 3.49 | N 2.61 | K 2.15 | Q 2.25 | A 2.15 | V 2.23 | P 2.1
V8: P 1.6 | K 2.4 | Q 2.25 | A 2.03 | M 2.51
L23: S 1.88 | D 1.47 | T 2.29 | A 1.91 | H 1.95 | V 2.29 | F 2.46 | M 2.52
L31: G 2.42 | E 0.917 | M 2.67 | Q 1.13 | F 2.25 | P 0.746
I42: Q 1.24 | W 1.58 | E 1.3 | T 1.38 | K 1.43 | A 1.29
T4: V 2.94 | K 2.29 | F 3.25 | Y 3.11 | L 2.95 | C 3.48 | G 1.61 | P 1.76 | M 2.74 | E 1.98 | I 3
K11: F 3.26 | T 2.85 | Y 3.32 | Q 2.72 | W 3.53 | V 2.96
K2: G 2.2 | F 2.8 | R 2.78 | T 3.4 | W 2.88 | H 2.46 | S 2.92
R28: Q 2.21 | E 2.08 | T 2.2 | W 2.68 | C 3.28 | S 2.35 | G 1.91 | V 2.36
I40: K 1.5 | C 2.22 | P 1.24 | V 2.07 | H 1.56 | M 1.92 | E 1.44 | N 1.44 | T 1.51 | D 1.39
E43: R 2.64 | N 2.6 | W 3.45 | Y 3.45 | P 1.83 | Q 2.66 | S 2.99
A22: M 2.59 | P 0.416 | Q 1.22 | Y 2.39 | E 0.979 | T 2 | R 1.16 | S 1.59
N14: F 2.64 | W 2.39 | S 2.93 | Y 2.41 | T 3.02 | A 2.25 | G 2.22 | E 1.86 | L 2.56
R32: P 1.71 | L 2.19 | N 2.03 | T 2.31 | D 1.56 | H 2.24 | F 2.12 | G 1.6 | Q 2.1 | M 2.07 | C 2.81
F35: W 2.7 | C 3.05 | R 1.8 | I 2.58 | V 2.37 | A 1.71 | N 1.46
N13: M 2.66 | H 2.45 | F 2.54 | V 2.46 | R 2.84 | Q 2.54 | W 2.6 | E 2.59
I5: P 1.79 | D 1.54 | E 1.56 | W 2.83 | Q 1.66 | T 1.59 | H 1.93 | R 1.58 | C 3.46
